From US20200407457A1 (YANTAI OBIOADC BIOMEDICAL TECHNOLOGY, published 2020)

molecular target: T1, TRAILR2 receptor on the surface of human tumor cells (human, UniProt O14763 56-440); experiment: cell-based or functional assay

| Binder | IC50, cytotoxic effect on A2780 cells (CellTiter-Glo, 72 h) [µg/mL] | IC50, cytotoxic effect on Jurkat E6-1 cells (CellTiter-Glo, 72 h) [µg/mL] | IC50, cytotoxic effect on Mia PaCa-2 cells (CellTiter-Glo, 72 h) [µg/mL] | IC50, cytotoxic effect on NCI-H460 cells (CellTiter-Glo, 72 h) [µg/mL] | IC50, cytotoxic effect on NCI-H1975 cells (CellTiter-Glo, 72 h) [µg/mL] | IC50, cytotoxic effect on SMMC-7721 cells (CellTiter-Glo, 72 h) [µg/mL] | eff. (efficiency %), cytotoxic effect on Jurkat E6-1 cells [%] | eff. (efficiency %), cytotoxic effect on Mia PaCa-2 cells [%] | eff. (efficiency %), cytotoxic effect on NCI-H460 cells [%] | eff. (efficiency %), cytotoxic effect on NCI-H1975 cells [%] |
| --- | --- | --- | --- | --- | --- | --- | --- | --- | --- | --- |
| Zapadcine-1a (antibody, V domains shown, MMAD coupled through linker Py-Vc-PAB by thiol (disulfide) bridge coupling, cleavable; positions not given) VH: QVQLVQSGSELKKPGASVKVSCKASGYTFTDFSMNWVRQAPGQGLEWMGWINTETGEPTYADDFKGRFVFSLDTSVSTAYLQISSLKAEDTAVYYCARIDYWGQGTTVTVSS VL: DIVMTQSPLSLPVTPGEPASISCRSSQSLVHSNGNTYLHWYLQKPGQSPQLLIYKVSNRFSGVPDRFSGSGSGTDFTLKISRVEAEDVGVYYCFQSTHVPHTFGQGTKLEIKR | 0.151 | 0.0134 | 0.135 | 0.0865 | 0.109 | 0.012 | 97.3 | 88.4 | 96.2 | 84.6 |
| Zapadcine-1d (antibody, V domains shown, MMAF coupled through linker Mc-Vc-PAB by thiol conventional coupling, cleavable; positions not given) VH: QVQLVQSGSELKKPGASVKVSCKASGYTFTDFSMNWVRQAPGQGLEWMGWINTETGEPTYADDFKGRFVFSLDTSVSTAYLQISSLKAEDTAVYYCARIDYWGQGTTVTVSS VL: DIVMTQSPLSLPVTPGEPASISCRSSQSLVHSNGNTYLHWYLQKPGQSPQLLIYKVSNRFSGVPDRFSGSGSGTDFTLKISRVEAEDVGVYYCFQSTHVPHTFGQGTKLEIKR |  | 0.108 | 1.02 | 1.03 | 1.67 | 0.583 | 84.9 | 80 | 80.6 | 68.8 |
| Zapadcine-1c (antibody, V domains shown, MMAD coupled through linker Py-MAA by thiol bridge coupling, non-cleavable; positions not given) VH: QVQLVQSGSELKKPGASVKVSCKASGYTFTDFSMNWVRQAPGQGLEWMGWINTETGEPTYADDFKGRFVFSLDTSVSTAYLQISSLKAEDTAVYYCARIDYWGQGTTVTVSS VL: DIVMTQSPLSLPVTPGEPASISCRSSQSLVHSNGNTYLHWYLQKPGQSPQLLIYKVSNRFSGVPDRFSGSGSGTDFTLKISRVEAEDVGVYYCFQSTHVPHTFGQGTKLEIKR |  | 0.0165 | 0.173 | 0.0651 | 0.312 | 0.0197 | 98.1 | 74 | 46.4 | 83 |
| Zapadcine-1b (antibody, V domains shown, MMAD coupled through linker Mc-Vc-PAB by thiol conventional coupling, cleavable; positions not given) VH: QVQLVQSGSELKKPGASVKVSCKASGYTFTDFSMNWVRQAPGQGLEWMGWINTETGEPTYADDFKGRFVFSLDTSVSTAYLQISSLKAEDTAVYYCARIDYWGQGTTVTVSS VL: DIVMTQSPLSLPVTPGEPASISCRSSQSLVHSNGNTYLHWYLQKPGQSPQLLIYKVSNRFSGVPDRFSGSGSGTDFTLKISRVEAEDVGVYYCFQSTHVPHTFGQGTKLEIKR | 1.1 | 0.00871 | 0.604 | 0.178 | 0.411 | 0.178 | 98.6 | 86.8 | 93.3 | 83.4 |

same assay, conditions: not given

| Binder | eff. (efficiency %), cytotoxic effect on SMMC-7721 cells [%] |
| --- | --- |
| Zapadcine-1a (antibody, V domains shown, MMAD coupled through linker Py-Vc-PAB by thiol (disulfide) bridge coupling, cleavable; positions not given) VH: QVQLVQSGSELKKPGASVKVSCKASGYTFTDFSMNWVRQAPGQGLEWMGWINTETGEPTYADDFKGRFVFSLDTSVSTAYLQISSLKAEDTAVYYCARIDYWGQGTTVTVSS VL: DIVMTQSPLSLPVTPGEPASISCRSSQSLVHSNGNTYLHWYLQKPGQSPQLLIYKVSNRFSGVPDRFSGSGSGTDFTLKISRVEAEDVGVYYCFQSTHVPHTFGQGTKLEIKR | 99.4 |
| Zapadcine-1d (antibody, V domains shown, MMAF coupled through linker Mc-Vc-PAB by thiol conventional coupling, cleavable; positions not given) VH: QVQLVQSGSELKKPGASVKVSCKASGYTFTDFSMNWVRQAPGQGLEWMGWINTETGEPTYADDFKGRFVFSLDTSVSTAYLQISSLKAEDTAVYYCARIDYWGQGTTVTVSS VL: DIVMTQSPLSLPVTPGEPASISCRSSQSLVHSNGNTYLHWYLQKPGQSPQLLIYKVSNRFSGVPDRFSGSGSGTDFTLKISRVEAEDVGVYYCFQSTHVPHTFGQGTKLEIKR | 93.7 |
| Zapadcine-1c (antibody, V domains shown, MMAD coupled through linker Py-MAA by thiol bridge coupling, non-cleavable; positions not given) VH: QVQLVQSGSELKKPGASVKVSCKASGYTFTDFSMNWVRQAPGQGLEWMGWINTETGEPTYADDFKGRFVFSLDTSVSTAYLQISSLKAEDTAVYYCARIDYWGQGTTVTVSS VL: DIVMTQSPLSLPVTPGEPASISCRSSQSLVHSNGNTYLHWYLQKPGQSPQLLIYKVSNRFSGVPDRFSGSGSGTDFTLKISRVEAEDVGVYYCFQSTHVPHTFGQGTKLEIKR | 96.5 |
| Zapadcine-1b (antibody, V domains shown, MMAD coupled through linker Mc-Vc-PAB by thiol conventional coupling, cleavable; positions not given) VH: QVQLVQSGSELKKPGASVKVSCKASGYTFTDFSMNWVRQAPGQGLEWMGWINTETGEPTYADDFKGRFVFSLDTSVSTAYLQISSLKAEDTAVYYCARIDYWGQGTTVTVSS VL: DIVMTQSPLSLPVTPGEPASISCRSSQSLVHSNGNTYLHWYLQKPGQSPQLLIYKVSNRFSGVPDRFSGSGSGTDFTLKISRVEAEDVGVYYCFQSTHVPHTFGQGTKLEIKR | 95.7 |

molecular target: T1, TRAILR2 receptor on the surface of …; experiment: cell-based or functional assay; remark: another data set of the same source

| Binder | IC50, cytotoxic effect on Jurkat E6-1 cells (CellTiter-Glo, 72 h) [µg/mL] | IC50, cytotoxic effect on MSTO-211H cells (CellTiter-Glo, 72 h) [µg/mL] | IC50, cytotoxic effect on Mia PaCa-2 cells (CellTiter-Glo, 72 h) [µg/mL] | IC50, cytotoxic effect on Reh cells (CellTiter-Glo, 72 h) [µg/mL] | eff. (efficiency %), cytotoxic effect on Jurkat E6-1 cells [%] | eff. (efficiency %), cytotoxic effect on MSTO-211H cells [%] | eff. (efficiency %), cytotoxic effect on Mia PaCa-2 cells [%] | eff. (efficiency %), cytotoxic effect on Reh cells [%] | IC50, cytotoxic effect on A172 cells (CellTiter-Glo, 72 h) [µg/mL] | eff. (efficiency %), cytotoxic effect on A172 cells [%] |
| --- | --- | --- | --- | --- | --- | --- | --- | --- | --- | --- |
| Zapadcine-3e (antibody, V domains shown, MMAF coupled through linker MC by thiol conventional coupling, non-cleavable; positions not given) VH: QVQLVQSGSELKKPGASVKVSCKASGYTFTDFSMNWVRQAPGQGLEWMGWINTETGEPTYADDFKGRFVFSLDTSVSTAYLQISSLKAEDTAVYYCARIDYWGQGTTVTVSS VL: DIVMTQSPLSLPVTPGEPASISCRSSQSLVHSNGNTYLHWYLQKPGQSPQLLIYKVSNRFSGVPDRFSGSGSGTDFTLKISRVEAEDVGVYYCFQSTHVPHTFGQGTKLEIKR | 0.0981 | 0.177 | 0.951 | 0.163 | 90.7 | 99.1 | 53 | 77.4 |  |  |
| Zapadcine-3b (antibody, V domains shown, MMAE coupled through linker PY-MAA by thiol bridge coupling, non-cleavable; positions not given) VH: QVQLVQSGSELKKPGASVKVSCKASGYTFTDFSMNWVRQAPGQGLEWMGWINTETGEPTYADDFKGRFVFSLDTSVSTAYLQISSLKAEDTAVYYCARIDYWGQGTTVTVSS VL: DIVMTQSPLSLPVTPGEPASISCRSSQSLVHSNGNTYLHWYLQKPGQSPQLLIYKVSNRFSGVPDRFSGSGSGTDFTLKISRVEAEDVGVYYCFQSTHVPHTFGQGTKLEIKR | 0.0717 | 0.255 | 0.415 | 0.196 | 87.1 | 91 | 52.9 | 75.3 | 0.389 | 90.8 |
| Zapadcine-3c (antibody, V domains shown, MMAE coupled through linker MC-VC-PAB by thiol conventional coupling, cleavable; positions not given) VH: QVQLVQSGSELKKPGASVKVSCKASGYTFTDFSMNWVRQAPGQGLEWMGWINTETGEPTYADDFKGRFVFSLDTSVSTAYLQISSLKAEDTAVYYCARIDYWGQGTTVTVSS VL: DIVMTQSPLSLPVTPGEPASISCRSSQSLVHSNGNTYLHWYLQKPGQSPQLLIYKVSNRFSGVPDRFSGSGSGTDFTLKISRVEAEDVGVYYCFQSTHVPHTFGQGTKLEIKR | 0.0896 | 0.22 | 0.508 | 0.889 | 82 | 98.2 | 86.3 | 98.6 | 0.703 | 93.2 |
| Zapadcine-3d (antibody, V domains shown, MMAE coupled through linker MC by thiol conventional coupling, non-cleavable; positions not given) VH: QVQLVQSGSELKKPGASVKVSCKASGYTFTDFSMNWVRQAPGQGLEWMGWINTETGEPTYADDFKGRFVFSLDTSVSTAYLQISSLKAEDTAVYYCARIDYWGQGTTVTVSS VL: DIVMTQSPLSLPVTPGEPASISCRSSQSLVHSNGNTYLHWYLQKPGQSPQLLIYKVSNRFSGVPDRFSGSGSGTDFTLKISRVEAEDVGVYYCFQSTHVPHTFGQGTKLEIKR | 0.00571 | 0.123 | 0.139 | 0.0242 | 98.9 | 98.5 | 81.7 | 98.8 | 0.307 | 92.5 |
| Zapadcine-3a (antibody, V domains shown, MMAE coupled through linker PY-VC-PAB by thiol bridge coupling, cleavable; positions not given) VH: QVQLVQSGSELKKPGASVKVSCKASGYTFTDFSMNWVRQAPGQGLEWMGWINTETGEPTYADDFKGRFVFSLDTSVSTAYLQISSLKAEDTAVYYCARIDYWGQGTTVTVSS VL: DIVMTQSPLSLPVTPGEPASISCRSSQSLVHSNGNTYLHWYLQKPGQSPQLLIYKVSNRFSGVPDRFSGSGSGTDFTLKISRVEAEDVGVYYCFQSTHVPHTFGQGTKLEIKR | 0.0372 | 0.127 | 0.097 | 0.0159 | 80.2 | 97.5 | 88.8 | 89.8 | 0.225 | 98.2 |
